Target: T1, Arabidopsis TIR1, coexpressed with AtASK1 (His10-eGFP-FLAG-(TEV)-AtTIR1 and His10-(TEV)-AtASK1) (Arabidopsis, UniProt Q570C0;Q39255)
T1 sequence 1: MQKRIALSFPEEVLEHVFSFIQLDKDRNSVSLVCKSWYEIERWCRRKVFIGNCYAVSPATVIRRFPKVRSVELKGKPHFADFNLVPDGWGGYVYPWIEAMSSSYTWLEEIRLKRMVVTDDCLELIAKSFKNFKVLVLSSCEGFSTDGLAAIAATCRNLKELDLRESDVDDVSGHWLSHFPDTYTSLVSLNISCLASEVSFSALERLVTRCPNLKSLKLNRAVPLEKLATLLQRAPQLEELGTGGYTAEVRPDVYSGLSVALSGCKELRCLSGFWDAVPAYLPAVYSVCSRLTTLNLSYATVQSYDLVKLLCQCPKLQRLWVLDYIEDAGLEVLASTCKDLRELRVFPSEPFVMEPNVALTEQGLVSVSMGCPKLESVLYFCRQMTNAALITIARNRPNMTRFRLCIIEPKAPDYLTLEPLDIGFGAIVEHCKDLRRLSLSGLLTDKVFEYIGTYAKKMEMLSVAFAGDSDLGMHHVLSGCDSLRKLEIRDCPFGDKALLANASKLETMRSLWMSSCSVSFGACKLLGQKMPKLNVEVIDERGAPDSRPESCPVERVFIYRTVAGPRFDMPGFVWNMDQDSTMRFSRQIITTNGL
T1 sequence 2: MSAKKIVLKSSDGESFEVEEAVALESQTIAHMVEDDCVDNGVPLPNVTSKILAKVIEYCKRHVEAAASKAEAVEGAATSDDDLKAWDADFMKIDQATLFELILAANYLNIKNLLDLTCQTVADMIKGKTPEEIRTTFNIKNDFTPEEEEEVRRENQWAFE
Test: NMR titration

B1: AXR3 DI/DII (N-terminal half, domains I and II, of the Aux/IAA protein AXR3/IAA17) (domain or fragment)
chain: MMGSVELNLRETELCLGLPGGDTVAPVTGNKRGFSETVDLKLNLNNEPANKEGSTTHDVVTFDSKEKSACPKDPAKPPAKAQVVGWPPVRSYRKNVMVSCQ
B1: binds.
